In patent US12098175B2, “Peptide inhibitors targeting the CXCL12/HMGB1 interaction and uses thereof” (INSTITUTE FOR RESEARCH IN BIOMEDICINE, priority 2019, dated 2024):
Read-outs that look alike come from different tables or passages of the source. Where no end group is shown, it is not given here.

Columns and labels:
[1] = target: T1, HMGB1 (Homo sapiens, UniProt P09429); details: literature value (Mollica et al. 2007); read-out: Kd reported for glycyrrhizin; cited from earlier work
T1 sequence (P09429 1-215): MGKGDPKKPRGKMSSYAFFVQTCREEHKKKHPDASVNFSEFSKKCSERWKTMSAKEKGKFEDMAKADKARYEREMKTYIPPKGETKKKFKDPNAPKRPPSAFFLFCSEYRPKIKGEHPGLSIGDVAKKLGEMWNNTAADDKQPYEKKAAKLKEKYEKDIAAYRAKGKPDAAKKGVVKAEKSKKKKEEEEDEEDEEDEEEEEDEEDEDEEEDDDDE

[2] = target: T1, HMGB1; experiment: Binding affinity to HMGB1 by microscale thermophoresis (MST); details: for Kd (μM), equilibrium dissociation constant: MST, Example 6 (Table 4), highest peptide concentration 500 μM
Protocol: The protein and the peptide were incubated for 15 minutes at room temperature, to allow binding. MST analysis was performed using premium-coated capillary tubes on a NanoTemper® instrument using the following experimental settings: LED power of 5% (for fluorescence excitation), and laser power 40% (to create temperature gradient). Kd values were calculate from compound concentration-dependent changes in normalized fluorescence (Fnorm). Independent experiments were performed to calculate the Kd value. Data were analyzed by the NanoTemper® analysis software.
MST analysis was performed using premium-coated capillary tubes on a NanoTemper instrument using the following experimental settings: LED power of 5% (for fluorescence excitation), and laser power 40% (to create temperature gradient). Kd values were calculated from compound concentration-dependent changes in normalized fluorescence (Fnorm). Independent experiments were performed to calculate the Kd value. Data were analyzed by the NanoTemper analysis software.

[3] = Solubility in PBS; assay type: physicochemical
[4] = target: T2, CXCL12/HMGB1 heterocomplex (Homo sapiens, UniProt P09429); experiment: In vitro chemotaxis (Boyden chamber): CXCL12/HMGB1-induced migration of 300.19 PreB cells expressing human CXCR4; assay type: cell-based, murine; details: peptides at 100 μM; CXCL12 1 nM, HMGB1 300 nM; compared with glycyrrhizin 200 μM; 300.19 PreB cells with human CXCR4
T2 sequence (P09429 1-215): T1 sequence (P09429 1-215)
Protocol: The 13 identified and synthesized peptides were tested in in vitro chemotaxis, to assess their efficacy as inhibitors of the CXCL12/HMGB1-induced migration, on a murine cell line expressing the human CXCR4.
All peptides, at 100 μM, were incubated with CXCL12 and HMGB1 before assessing chemotaxis, to evaluate their ability to interfere with the heterocomplex formation, and inhibit the synergistic effect of HMGB1.

[5] = target: CXCL12 (Homo sapiens, UniProt P48061); experiment: In vitro chemotaxis: migration induced by CXCL12 alone, 300.19 PreB cells expressing human CXCR4; assay type: cell-based, murine; details: peptides at 100 μM; CXCL12 1 nM; 300.19 PreB cells with human CXCR4
CXCL12, sequence (P48061 22-93, species assumed): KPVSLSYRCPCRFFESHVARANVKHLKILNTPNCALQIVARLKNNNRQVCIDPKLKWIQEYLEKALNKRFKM
Protocol: Further experiments were performed with CXCL12 alone to identify peptides affecting cell migration induced by CXCL12 alone.
Briefly, chemotaxis was performed using Boyden chambers with 5 μm pore membranes. […] 200 μM glycyrrhizin were used as positive control.

Compound	Inhibition of the enhanced migration induced by the CXCL12/HMGB1 heterocomplex [4]	Effect on cell migration induced by CXCL12 alone [5]	also measured
CC1(C)[C@@H](O[C@H]2O[C@H](C(=O)O)[C@@H](O)[C@H](O)[C@H]2O[C@@H]2O[C@H](C(=O)O)[C@@H](O)[C@H](O)[C@H]2O)CC[C@]2(C)[C@H]3C(=O)C=C4[C@@H]5C[C@@](C)(C(=O)O)CC[C@]5(C)CC[C@@]4(C)[C@]3(C)CC[C@@H]12 [glycyrrhizin]			Kd [1]: 125 µM
ERWIH [Pentapept-2, ERWIH]			Kd [2]: 200 ± 80 µM
GYHYE [Pentapept-1]			Kd (μM), equilibrium dissociation constant [2]: No binding*; Kd (μM), equilibrium dissociation constant ([2]; listed as pentapept-1): no binding was observed
GYHYEAWIH [HBP08-A6]			Solubility [3]: poorly soluble
HWTLANWCR (HBP07)	inhibit the enhanced migration induced by the CXCL12/HMGB1 heterocomplex more than glycyrrhizin at 200 μM	do not affect CXCL12-induced cell migration	
WISNWILMW (HBP05)	inhibit the enhanced migration induced by the CXCL12/HMGB1 heterocomplex more than glycyrrhizin at 200 μM	inhibit the migration induced by the chemokine alone	
YHICWYGDY (HBP12)	inhibit the enhanced migration induced by the CXCL12/HMGB1 heterocomplex more than glycyrrhizin at 200 μM	inhibit the migration induced by the chemokine alone	
